Assays:
[1] = target: T1, insulin B chain peptide on HLA-DQA1*05:01 / HLA-DQB1*03:02 (human); test: activation reporter or marker
T1 peptide: SHLVEALYLVCGERG

[2] = target: T2, transketolase (TKT) from Clostridium leptum, TKT peptide 8 peptide on HLA-DQA1*05:01 / HLA-DQB1*03:02 (human); test: activation reporter or marker
T2 peptide: GHSVEALYCILADRG

binding result [1]: recognises
binding result [2]: recognises
B1: GSE.166H9 (TCR)
alpha TRAV3 TRAJ21 CDR3: CAVMYNFNKFYF
beta TRBV12-3 TRBJ2-5 CDR3: CASSLGGRETQYF

— doi:10.1101/2022.05.11.22274678 (2022)
